Measurements published in the supplement of paper PMC10567573.

B1: C10orf62 (parent)
chain: TSECPSDKDKSPESHKAKNESWIK

Variants of: B1
Assay: protein stability index of a GFP-peptide fusion (GPS, HEK-293T) (PSI 1-6); higher = more stable
Settings: c terminus: a fixed tail appended
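Note: lentivirally expressed fusions sorted by FACS into six bins by GFP to DsRed ratio, PSI derived from sequencing read proportions per bin multiplied by bin number.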

Variant	protein stability index
TSECPSDKDKSPESHGAKNESWIK [K16G]	3.58
TSECPSDKDKSPESHSAKNESWIK [K16S]	3.79
TSECPSDKDKSPESHIAKNESWIK [K16I]	3.92
TSECPSDKDKSPESHCAKNESWIK [K16C]	3.75
TSECPSDKDKSPESHYAKNESWIK [K16Y]	3.6
TSECPSDKDKSPESHRAKNESWIK [K16R]	3.02
TSECPSDKDKSPESHAAKNESWIK [K16A]	4.49
TSECPSDKDKSPESHHAKNESWIK [K16H]	3.8
TSECPSDKDKSPESHNAKNESWIK [K16N]	3.67
TSECPSDKDKSPESHWAKNESWIK [K16W]	3.33
TSECPSDKDKSPESHVAKNESWIK [K16V]	3.95
TSECPSDKDKSPESHEAKNESWIK [K16E]	4.94
TSECPSDKDKSPESHQAKNESWIK [K16Q]	3.29
TSECPSDKDKSPESHMAKNESWIK [K16M]	3.85
TSECPSDKDKSPESHPAKNESWIK [K16P]	4.62
TSECPSDKDKSPESHTAKNESWIK [K16T]	4.35
TSECPSDKDKSPESHLAKNESWIK [K16L]	3.37
TSECPSDKDKSPESHFAKNESWIK [K16F]	3.85
TSECPSDKDKSPESHDAKNESWIK [K16D]	4.2
TSECPSDKDCSPESHKAKNESWIK [K10C]	3.95
TSECPSDKDNSPESHKAKNESWIK [K10N]	3.73
TSECPSDKDTSPESHKAKNESWIK [K10T]	3.04
TSECPSDKDESPESHKAKNESWIK [K10E]	4
TSECPSDKDWSPESHKAKNESWIK [K10W]	2.28

Variant	protein stability index
TSECPSDKDASPESHKAKNESWIK [K10A]	3.64
TSECPSDKDVSPESHKAKNESWIK [K10V]	2.75
TSECPSDKDDSPESHKAKNESWIK [K10D]	4.02
TSECPSDKDSSPESHKAKNESWIK [K10S]	3.41
TSECPSDKDYSPESHKAKNESWIK [K10Y]	2.94
TSECPSDKDQSPESHKAKNESWIK [K10Q]	3.46
TSECPSDKDHSPESHKAKNESWIK [K10H]	3.53
TSECPSDKDMSPESHKAKNESWIK [K10M]	3.63
TSECPSDKDLSPESHKAKNESWIK [K10L]	4.2
TSECPSDKDISPESHKAKNESWIK [K10I]	3.25
TSECPSDKDGSPESHKAKNESWIK [K10G]	2.63
TSECPSDKDRSPESHKAKNESWIK [K10R]	2.81
TSECPSDKDPSPESHKAKNESWIK [K10P]	3.3
TSECPSDKDFSPESHKAKNESWIK [K10F]	3.72
TSECPSDKDKEPESHKAKNESWIK [S11E]	3.67
TSECPSDKDKWPESHKAKNESWIK [S11W]	3.26
TSECPSDKDKCPESHKAKNESWIK [S11C]	3.31
TSECPSDKDKNPESHKAKNESWIK [S11N]	3.7
TSECPSDKDKTPESHKAKNESWIK [S11T]	3.85
TSECPSDKDKRPESHKAKNESWIK [S11R]	2.92
TSECPSDKDKLPESHKAKNESWIK [S11L]	3.04
TSECPSDKDKQPESHKAKNESWIK [S11Q]	1.92
TSECPSDKDKAPESHKAKNESWIK [S11A]	3.41
TSECPSDKDKIPESHKAKNESWIK [S11I]	3.2

Variant	protein stability index
TSECPSDKDKPPESHKAKNESWIK [S11P]	3.52
TSECPSDKDKDPESHKAKNESWIK [S11D]	2.29
TSECPSDKDKVPESHKAKNESWIK [S11V]	2.96
TSECPSDKDKHPESHKAKNESWIK [S11H]	3.01
TSECPSDKDKFPESHKAKNESWIK [S11F]	2.98
TSECPSDKDKKPESHKAKNESWIK [S11K]	3.81
TSECPSDKDKYPESHKAKNESWIK [S11Y]	2.5
TSECPSDKDKGPESHKAKNESWIK [S11G]	3
TSECPSDKDKMPESHKAKNESWIK [S11M]	3.26
TSECPSDKDKSPEAHKAKNESWIK [S14A]	3.7
TSECPSDKDKSPECHKAKNESWIK [S14C]	3.52
TSECPSDKDKSPEKHKAKNESWIK [S14K]	2.82
TSECPSDKDKSPEIHKAKNESWIK [S14I]	3.66
TSECPSDKDKSPEPHKAKNESWIK [S14P]	3.2
TSECPSDKDKSPENHKAKNESWIK [S14N]	3.95
TSECPSDKDKSPEFHKAKNESWIK [S14F]	3.89
TSECPSDKDKSPEDHKAKNESWIK [S14D]	4.49
TSECPSDKDKSPEQHKAKNESWIK [S14Q]	4.13
TSECPSDKDKSPERHKAKNESWIK [S14R]	3.82
TSECPSDKDKSPETHKAKNESWIK [S14T]	3.41
TSECPSDKDKSPEYHKAKNESWIK [S14Y]	3
TSECPSDKDKSPEMHKAKNESWIK [S14M]	3.34
TSECPSDKDKSPEVHKAKNESWIK [S14V]	3.98
TSECPSDKDKSPELHKAKNESWIK [S14L]	3.48

Variant	protein stability index
TSECPSDKDKSPEWHKAKNESWIK [S14W]	4
TSECPSDKDKSPEEHKAKNESWIK [S14E]	4.58
TSECPSDKDKSPEHHKAKNESWIK [S14H]	3.71
TSECPSDKDKSPEGHKAKNESWIK [S14G]	3.5
TSECPSDKDKSPESHKRKNESWIK [A17R]	2.6
TSECPSDKDKSPESHKGKNESWIK [A17G]	3.27
TSECPSDKDKSPESHKDKNESWIK [A17D]	3.88
TSECPSDKDKSPESHKLKNESWIK [A17L]	3.64
TSECPSDKDKSPESHKQKNESWIK [A17Q]	3.64
TSECPSDKDKSPESHKEKNESWIK [A17E]	3.88
TSECPSDKDKSPESHKMKNESWIK [A17M]	2.93
TSECPSDKDKSPESHKIKNESWIK [A17I]	4.17
TSECPSDKDKSPESHKPKNESWIK [A17P]	3.07
TSECPSDKDKSPESHKFKNESWIK [A17F]	3.42
TSECPSDKDKSPESHKNKNESWIK [A17N]	3.56
TSECPSDKDKSPESHKCKNESWIK [A17C]	3.6
TSECPSDKDKSPESHKHKNESWIK [A17H]	3.29
TSECPSDKDKSPESHKKKNESWIK [A17K]	2.93
TSECPSWKDKSPESHKAKNESWIK [D7W]	2.58
TSECPSVKDKSPESHKAKNESWIK [D7V]	3.52
TSECPSTKDKSPESHKAKNESWIK [D7T]	3.14
TSECPSYKDKSPESHKAKNESWIK [D7Y]	2.85
